We go through two molecules from patent US6964763 (CORNELL RESEARCH FOUNDATION, dated 2005).

B1: RANTES (regulated on activation normal T expressed and secreted protein) (ligand, UniProt P13501 24-91, looked up)
chain: SPYSSDTTPCCFAYIARPLPRAHIKEYFYTSGKCSNPAVVFVTRKNRQVCANPEKKWVREYINSLEMS
B2: Purified human calcium-replete thrombospondin-1 (TSP1) from thrombin-activated platelets (ligand)
chain: not shown
notes: mature; also called purified platelet TSP1

The target of assay [1] is B2. The assay can be described thus: solid phase binding, 125I-RANTES on immobilized TSP1; saturatable, biphasic.
Description: (§1) Washed wells were blocked with 0.5% bovine serum albumin ("BSA"), then incubated in triplicate with soluble radiolabeled ligand for 2.5 hours at 37° C. After extensive washing in 50 mM Tris pH 7.5, 150 mM NaCl, 0.5% Tween-20 (TBS-Tween), bound radioactivity was quantified by gamma counter. […] Specific binding was determined as quenchable in the presence of excess unlabeled ligand, above background binding to BSA-coated wells.
In assay [2] the target is T1, CHO cell-expressed soluble recombinant CD4 (UniProt P01730 26-394).
T1 construct: also called soluble CD4
Nature of the assay: solid phase binding, 125I-CD4 on immobilized TSP1.
Description: as §1

With B1, in assay [1], the EC50 was around 330 nM.
Consider B2, for which, in assay [2], the binding result is reported as “binds”.

A word on the EC50: it is the concentration giving half of the maximal effect.
